We go through one substance from PMC11153135.

In this experiment the target is purified human SLAMF4 (hSLAMF4) protein, recombinant (human) (UniProt Q9BZW8). Kind of experiment: MST; Monolith NT.115; GST–lytC_22 in a gradient (11 to 0.34375 μg μl^-1) mixed 1:1 (vol/vol) with 0.2 μg μl^-1 fluorescently pre-labelled recombinant Slamf4, 30 min at room temperature; medium MST power; apparent.
UniProt Q9BZW8, sequence (Q9BZW8 22-229): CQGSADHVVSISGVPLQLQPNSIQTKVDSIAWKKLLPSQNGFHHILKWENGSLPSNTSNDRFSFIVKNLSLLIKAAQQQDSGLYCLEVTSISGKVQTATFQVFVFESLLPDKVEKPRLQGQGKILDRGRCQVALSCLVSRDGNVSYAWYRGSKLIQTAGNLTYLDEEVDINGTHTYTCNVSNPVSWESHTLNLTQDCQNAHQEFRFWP

For “GST–lytC_22 (recombinant glutathione S-transferase-tagged N-acetylmuramoyl-L-alanine amidase lytC_22 of P. anaerobius) (natural protein)”, the Kd was 40.1 nM.
